Blank lines part the entries; values can stand above or below the molecule they belong to.
What was measured:
HLA-A*02:01 [1] = biological target: HLA-A*02:01 (Homo sapiens, UniProt P04439, D140Y/D185E/D98H/E176V/E277Q/G131W/G231S/I119V/I121R/I166T/I218V/L300P/L318F/N151K/N90K/P208A/P217A/Q86G/Q94H/R138H/R169H/T345S); test: T2 peptide binding (stabilization) assay; format: cell-based; conditions: peptides exogenously pulsed on T2 cells; anti-HLA-A2 FITC (BB7.2), FACS
PAP = biological target: T1, PAP (Homo sapiens, UniProt P15309); conditions: positive response SI>5 at week 6 post immunization; cited from earlier work
T1 sequence (P15309 33-386): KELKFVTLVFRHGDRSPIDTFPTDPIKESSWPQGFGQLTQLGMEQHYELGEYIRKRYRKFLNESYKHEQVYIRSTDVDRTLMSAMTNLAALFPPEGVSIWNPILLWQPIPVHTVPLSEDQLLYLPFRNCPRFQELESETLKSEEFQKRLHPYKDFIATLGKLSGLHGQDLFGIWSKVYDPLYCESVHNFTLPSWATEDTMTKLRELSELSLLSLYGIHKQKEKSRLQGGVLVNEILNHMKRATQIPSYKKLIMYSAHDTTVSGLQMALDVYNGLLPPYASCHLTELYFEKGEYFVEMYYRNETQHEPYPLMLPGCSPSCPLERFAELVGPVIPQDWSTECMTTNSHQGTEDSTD

[2] = men with metastatic castration-resistant prostate cancer; cited from earlier work
PAP+ target cells = conditions: video evidence; cited from earlier work
HLA-A*02:01 [3] = biological target: T2, HLA-A*02:01 (Homo sapiens, UniProt P04439, D140Y/D185E/D98H/E176V/E277Q/G131W/G231S/I119V/I121R/I166T/I218V/L300P/L318F/N151K/N90K/P208A/P217A/Q86G/Q94H/R138H/R169H/T345S/Y108C); test: Secreted single-chain trimer (SCT) quantification assay
T2 construct: made in house
Description: Peptide-MHC I complexes processed by endogenous machinery might show different stability compared to exogenous peptide pulsing (such as in T2 binding assays). This can be the result of post-translational modifications (PTMs). A recently developed technique, secreted single-chain trimer (SCT), was used to evaluate relative stability of pMHC of interest (36). In the secreted SCT construct, MHC I heavy chain (HLA-A*02:01 alpha chain with H74L and Y84C mutation), light chain (beta-microglobulin), and corresponding peptide were tethered by linkers as one single chain molecule (FIG. 3a). Constructs were expressed in cells and released into culture supernatant. Only peptides favored by HLA-A*02:01 are expected to generate a stable SCT and have higher yields. The quantity of SCTs was measured by band intensity on SDS-PAGE and normalized against a well-known WT1 cancer epitope that is restricted on HLA-A*02:01 ([…]) (FIG. 3b) (37, 38).
SCT quantification assay: SCT constructs (mutant H74L/Y84C) with individual PAP peptides were synthesized according to the previously published protocol (36).

HLA-A*02:01 on T2 cells [4] = biological target: T3, HLA-A*02:01 on T2 cells (human); test: T2 binding assay, HLA-A2 on T2 cells by anti-A2 (BB7.2) FITC flow cytometry
T3 construct: also called HLA-A2; A2

[5] = biological target: T4, prostatic acid phosphatase (PAP); peptide PAP_A2_21 peptide on HLA-A*02:01 (human); test: activation reporter or marker
T4 peptide: LLLARAASLSL

[6] = biological target: T5, prostatic acid phosphatase (PAP); peptide PAP_A2_14 peptide on HLA-A*02:01 (human); test: multimer staining
T5 peptide: ILLWQPIPV

HLA-A*02:01 on T2 cells [7] = biological target: T3, HLA-A*02:01 on T2 cells; test: T2 stabilization assay, HLA-A2 on T2 cells by anti-A2 (BB7.2) FITC flow cytometry
[8] = biological target: T6, prostatic acid phosphatase (PAP); peptide PAP_A2_25 peptide on HLA-A*02:01 (human); test: cytokine release
T6 peptide: IMYSAHDTTV

Molecule: ILLWQPIPV (listed as Homo sapiens) [PAP-A2-14]
- HLA-A2 signal in T2 assay (slope of natural log of A2 fluorescent intensity vs diluted peptide concentration) (HLA-A*02:01 [1]): Positive

Molecule: sipuleucel-T
- patients displaying T cell proliferation responses to PAP (PAP): 27.2%
- median improvement in overall survival [2]: 4.1 months
- lysis of PAP+ target cells by T cells from treated patients (PAP+ target cells): capable of lysing

Molecule: LLLARAASLSL (listed as Homo sapiens) [PAP-A2-21]
- HLA-A2 signal in T2 assay (slope of natural log of A2 fluorescent intensity vs diluted peptide concentration) (HLA-A*02:01 [1]): Positive

Molecule: SVHNFTLPSW (listed as Homo sapiens) [PAP-A2-24]
- affinity toward HLA-A*02:01 after glycosylation (HLA-A*02:01 [3]; N-glycosylated peptide in SCT): altered affinity
- SCT yield normalized to control WT1 epitope (RMFPNAPYL) (HLA-A*02:01 [3]; band intensity on SDS-PAGE, cutoff 0.2 for relatively high stability): 1.40

Molecule: KVYDPLYCESV (listed as Homo sapiens) [PAP-A2-20]
- HLA-A2 signal in T2 assay (slope of natural log of A2 fluorescent intensity vs diluted peptide concentration) (HLA-A*02:01 [1]): Positive

Molecule: IMYSAHDTTV (listed as Homo sapiens) [PAP-A2-25]
- HLA-A2 signal in T2 assay (slope of natural log of A2 fluorescent intensity vs diluted peptide concentration) (HLA-A*02:01 [1]): Positive

Molecule: TLMSAMTNL [PAP-A2-22 peptide TLMSAMTNL]
- binding result (HLA-A*02:01 on T2 cells [4]): binds

Second part, the molecule after the results:

- binding result [5]: recognises
B1: PAP-TCR-225 (TCR, V domains shown)
Valpha: DQQVKQNSPSLSVQEGRISILNCDYTNSMFDYFLWYKKYPAEGPTFLISISSIKDKNEDGRFTVFLNKSAKHLSLHIVPSQPGDSAVYFCAASVDEKLTFGTGTRLTIIP
Vbeta: DTGVSQNPRHKITKRGQNVTFRCDPISEHNRLYWYRQTLGQGPEFLTYFQNEAQLEKSRLLSDRFSAERPKGSFSTLEIQRTEQGDSAMYLCASSLQVEQFFGPGTRLTVL

- binding result [6]: recognises
B2: PAP-TCR-204 (TCR, V domains shown)
Valpha: AQSVTQPDIHITVSEGASLELRCNYSYGATPYLFWYVQSPGQGLQLLLKYFSGDTLVQGIKGFEAEFKRSQSSFNLRKPSVHWSDAAEYFCAVGAGDYKLSFGAGTTVTVRA
Vbeta: ETGVTQTPRHLVMGMTNKKSLKCEQHLGHNAMYWYKQSAKKPLELMFVYSLEERVENNSVPSRFSPECPNSSHLFLHLHTLQPEDSALYLCASSQTTGQPQHFGDGTRLSIL

- binding result (HLA-A*02:01 on T2 cells [7]): binds
Molecule: LLLARAASLSL (also called PAP-21) [PAP-A2-21 peptide LLLARAASLSL]

- binding result [8]: recognises
B3: PAP-TCR-213 (TCR, V domains shown)
Valpha: TQLLEQSPQFLSIQEGENLTVYCNSSSVFSSLQWYRQEPGEGPVLLVTVVTGGEVKKLKRLTFQFGDARKDSSLHITAAQPGDTGLYLCAGAPETSGSRLTFGEGTQLTVNP
Vbeta: GAGVSQTPSNKVTEKGKYVELRCDPISGHTALYWYRQSLGQGPEFLIYFQGTGAADDSGLPNDRFFAVRPEGSVSTLKIQRTERGDSAVYLCASSFGGGSSPLHFGNGTRLTVT

- binding result (HLA-A*02:01 on T2 cells [7]): binds
Molecule: KVYDPLYCESV [PAP-A2-20 peptide KVYDPLYCESV]

- binding result [5]: recognises
B4: PAP-TCR-175 (TCR, V domains shown)
Valpha: ILNVEQSPQSLHVQEGDSTNFTCSFPSSNFYALHWYRWETAKSPEALFVMTLNGDEKKKGRISATLNTKEGYSYLYIKGSQPEDSATYLCAFEDSGYSTLTFGKGTMLLVSP
Vbeta: DAGITQSPRYKITETGRQVTLMCHQTWSHSYMFWYRQDLGHGLRLIYYSAAADITDKGEVPDGYVVSRSKTENFPLTLESATRSQTSVYFCASGGLAGVDEQYFGPGTRLTVT

From patent publication US20250161357A1, “HUMAN T CELL RECEPTOR PAIRS REACTIVE WITH HLA-A*02:01 RESTRICTED HUMAN PROSTATIC ACID PHOSPHATASE (PAP) EPITOPES” (The Regents of the University of California, priority 2022, published 2025)
